Results on 19 variants are retold here after the RNAGym collection of RNA variant scans (doi:10.1073/pnas.2313332121).

Variants at the floor of the assay were thinned out.

B1: TPR 5TU (parent)
chain: GGAUCUUCUCGAUCUAACAAAAAAGACAAAUCUGCCACAAAGCUUGAGAGCAUCUUCGGAUGCAGAGGCGGCAGCCUUCGGUGGCGCGAUAGCGCCAACGUUCUCAACUAUGACACGCAAAACGCGUGCUCCGUUGAAUGGAGUUUAUCAUG

The data set covers variants of B1. The data set is described as follows: polymerase ribozyme fitness, log enrichment relative to wild type (log ratio); higher = more active; in vitro selection for triplet polymerase activity. In a few lines: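 Fitness is a logarithmic measure of how a genotype enriched relative to the wild type, with replicate averages weighted by inverse variance. The logarithm uses base 2, and enrichment came from Illumina sequencing of input and output libraries. Those libraries were PCR-built, transcribed mutants of each subunit of a heterodimeric triplet polymerase ribozyme, passed through one triplicate in vitro selection round that included frozen incubation at −7 °C, gel excision of extended constructs and streptavidin-bead capture. Genotypes were kept only if they had ≥10 input reads and ≥1 read per output.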
With GGGACUUCUCGAUCUAACAAAAAAGACAAAUCUGCCACAAAGCUUGAGAGCAUUUUCGGAUGCAGAGGCGGCAGCCUUCGGUGGCGCGAUAGCGCCAACGUGCUCAACUAUGACACGCAAAACGGGUGCUCCGUUGAAUGGAGUUUAUCAUG, the “polymerase ribozyme fitness (log ratio)” value is -3.99. Next, GGGUCUUCUCGAUCUAACAAAAAAGACAAAUCUGCCACAAAGCUUGAGAGCAUCUCCGGAUGCAGAGGCGGCAGCCUUCGGUGGCGAGAUACCGCCAACGUUCUCAACUAUGACACGCAAAACGCGUGCUCCGUUGAAUGGAGUUUAUCAUG: -2.12.

In the case of GGUUCUUCUCGGUCUAACAAACAAGACAAAUCUGCCUCAAAGCUUGGGAGCAUCUUCGGAUGCAGAGGCGGCAGCCUUCGGUGGCGCGAUAGCGCCGACGUUCUCAACUAUGACACGCAAAACGCGUGCUCCGUUGAAUGGAGUUUAUCAUG, the “polymerase ribozyme fitness (log ratio)” value was -3.5. To GGGUCUUCUCGAUCUAACAAAAAAGACAAAUCUGCCACAAAGCUUGAGAGCAUCUUCGGAUGCAGAGGCGGCAGCCUUCGGUGACGCGAUAGCGCCAUCGUUCUCAACUAUGACACGCAAAACGCGUGCUCCGUUGAAUGGAGUUUAUCAUG belongs -1.36. Next, GGGGCUUCUCGAUCAAACAAAAAAGAUAAAUCUGCCAAAAAGCUUGAGAGCAUCUUGGGAUGCAGAGGCGGCAGCCUUCGGUGGCGCGAUAACGCCAACGUUCUCAACUAUGACACGCUAAACGCGUGCUCCGUUGAAUGGAGUUUAUCAUG: ≤ -4.2; GGGUCUUCUCCAUCUAACAAAAAAGACAAAUCUGCCACAAAGCUUGAGAGCAUCUUCGGAUGCAGAGGCGGCAGCCUUCGGUGGCGAGAUUGCGCCAACGUUCUCAACUAUGACACGCAAAACGCGUGCUCCGUUGGAUGGAGUUUAUCAUG: ≤ -4.2; GGGUCUGCUCGAUCUAACAAAAAAGACAAAUCUGCCACAAAGCUUAUGAGUAUCUUCGGAUGCAGAGGCGGCAGCCUUCGGUGGCGCGAUAGCCCCAACGUUCUCAACUAUGACACGCAAAACGUGUGCUCCGUUGAAUGGAAUUUAUCAUG: ≤ -4.2. To GGGUCUUCUCGAUCUAACAAAAAAGACAAAUCUGCCACAAAGCUUGAGAGCAUCUUCGGAUGCAGAGGCGGCAGCCUUCGGUGGCGCGAUAGUGCCAACGUUCUCAACUAUGACACGCAAAACGCGUGCUCCGUUGAAUGGAGUUUAUCAUG belongs -1.78; to GGGUCUUCUCGAUCUAACAAAAAAGACAAAUCUGCCACAAAGCUUGAGACCAUCUUCGGAUGCAGAGGCGGCAGCAUUCGGUGGCGCGAUAGCGCCAACGUUCUCAACUAUGACUCGCAAAACGCGUGCUGCGUUGAAUGGAGUUUAUCAUG, ≤ -4.2. In the case of GGGACUUCUCGAUCUAACAAAAAAGACAAAUCUGCCACAAAGCUUGAGAGCACCUUCGUAAGCAGAGGCGCCAGCCUUCGGUGGAGCGAUAGCGCCAACGUUCUCAACUAUGACACGCAAAACGCGUGCUCCGUUGAAUGGAGUUUAUCAUG, the “polymerase ribozyme fitness (log ratio)” value was ≤ -4.2.

As for GGGUCUUCUCGAGCUAACAAAAAAGACAAAUCUGCCACAAAGCUUGAGAGCAUCUUCGGAUGCAGAGGCGGCAGCCUUCGGUGGCGCGAUAGCGCCAACGUUCUCAACUAUGACACGCAAAACGCGUGCUCCGUUGAAUGGAGCUUAUCAUG, the “polymerase ribozyme fitness (log ratio)” value was 0.104. To GGGUCUUCUCGAUCUAACAAAAAAGACAAAUCUGCCACAAAGCUUGAGAGCAUCUUCGGAUGCAGAGGCGGCAGCCUUCGGUGGCACGAUAGCGCCAACGUUCUCAACUAUGACACGCAAAACGCGUGCUCCGUUGAAUGGAGUUUAUCAUG belongs -1.52; to GGGUCUUCUCGAUCUAACAAAAAAGACAAAUCUGCCACAAAGCUUGAGAGCAUCUUCGGAUGCAGAGGCGUCAGCCUUCGGUGGCGCGAUAGCGCAAACGUUCUCAGCUAUGACAUGCAAAACGGGUGCUCCGUUGAAUGGAGUUUAUCAUG, ≤ -4.2; to GGUUCUUCUCGAUCUCACAAAAAAGACAAAUCUGCCACAAAGCUUGAGAGCAUCUUCGGGUGCAGAGGCGGCAGCCUUCGGUGGCGAGAUAGCGCCAACGUGCUCAAGUAUGACACGCAAAACGCGAGCUCCGUUGAAUGGAGUGUAUCAUG, ≤ -4.2. Take GGGUCGUCUCGAUCUAACAAAAAAGACAAAUCUGCCACAAAGCUUGAGAGCAUCUUCGGAUGCAGAGGCGGCAGCCUUCGGUGGCGCGAGAGCGCCAACGUUUUCAACUAUGACACGCAAAACGCGUGCUCCGUUGAAUGCAGUUUAUCAUG: the “polymerase ribozyme fitness (log ratio)” value was ≤ -4.2.

GGGUCUUCGCGAUCUGACAACAAAGACAAAUCUGCCACAAAGCUUGAGAGCAUCUUCGGAUGCAGAGGCGGCAGCCUUCGGUGACGCGAUAGCGCCAACGUUCUCAACUAUGACACGCAAAACGCGUGCUCCCUUGAAUGAAGUUUAUCAUG: the “polymerase ribozyme fitness (log ratio)” value is ≤ -4.2. Next, GGGUCAUCUCGAUCUAACAAAAAAGACAAAUCUGCCACUAAGCUUGAGAGCAUCUUCGGAUGCAGAGGCGGCAGCCUUCGGUGUCGCGAUAGCGCCAACGUUCUCAACUAUGACACGCAAAACGCGUGCUCCGAUGAAUGGAGCUUAUCUUG: ≤ -4.2; GGGUCUUCUCAAUCUAACAAAAAAGACAAAUUUGCCACAAAGCUUGAGAGCAUCUUCGGAUGCAGAGGCGGCAGCCUUCGGUGGGGAGAUAGCGCCAACGUUCUCAACUAUGACACGCAAAACUCGUGCUCCGUUGAAUGGAGUUUAUCAUG: ≤ -4.2. To GGUUCUUCUCGGUCUAACAAAAAAGACAAAUCUGCCACAAAGCUUGAGAGCAUCUUCGGAUGCAGAGGCGGCAGCCUUCGGUGGCGGGAUAGCGCCAACGUUCUCAACUAUGACACGCAAAACGCGUGCUCCGUUGAAUGGAGUUUAUCAUG belongs -4.02.
